The results in this text go back to patent publication US20070203054A1 (YISSUM RESEARCH DEVELOPMENT COMPANY OF THE HEBREW …, published 2007).

The target in experiment [1] is HA of influenza A/Beijing (A/Beijing/262/95-like (H1N1)) on infected cells (influenza A virus A/Beijing/262/95-like (H1N1)).
The target in experiment [2] is HA of influenza A/Moscow (A/Moscow/10/99-like (H3N2)) on infected cells (influenza A virus A/Moscow/10/99-like (H3N2)).
The target in experiment [3] is HA of influenza A/Sydney (A/Sydney/5/97-like (H3N2)) on infected cells (influenza A virus A/Sydney/5/97-like (H3N2)).
For experiment [4], the target named is HA of influenza virus New Caledonia (H1N1) on infected cells (influenza A virus New Caledonia (H1N1)).
Experiment [5] addresses HA of influenza virus Yamanashi (B strain) on infected cells (influenza B virus Yamanashi).
The target of experiment [6] is hemagglutinin-neuraminidase of Sendai virus (SV) on infected cells (Sendai virus).

As for “NKp46D1-Ig fusion protein (membrane distal domain of NKp46 fused to Fc of human IgG1) (from UniProt O76036 22-120) (Fc fusion)”, the MFI amounted to 7 in experiment [1]; 8 in experiment [2]; 10 in experiment [3]; 5 in experiment [4]; 8 in experiment [5]; 8 in experiment [6].

On to “NKp30-Ig fusion protein (from UniProt O14931 19-135) (Fc fusion)”, for which the MFI in experiment [1] came out at 4; in experiment [2] it was 8; in experiment [3], 8; in experiment [4], 10.

For “NKp46D2-Ig fusion protein produced in COS cells (membrane proximal domain of NKp46 fused to Fc of human IgG1) (from UniProt O76036 121-254) (Fc fusion)”, the MFI in experiment [1] came to 77; in experiment [2], 50; in experiment [3], 100; in experiment [4], 420; in experiment [5], 51; in experiment [6], 95.

As to “NKp46-Ig fusion protein (from UniProt O76036 22-254) (Fc fusion)”, the MFI was 44 in experiment [1], 20 in experiment [2], 58 in experiment [3] and 315 in experiment [4].

As for “NKp44-Ig fusion protein (from UniProt O95944 22-190) (Fc fusion)”, the MFI in experiment [1] was 128; in experiment [2], 24; in experiment [3], 120; in experiment [4], 518; in experiment [5] it was 117; in experiment [6] it was 350.

B1: CD99-Ig fusion protein (Fc fusion)
chain: DGGFDLSDALPDNENKKPTAIPKKPSAGDDFDLGDAVVDGENDDPRPPNPPKPMPNPNPNHPSSSGSFSDADLADGVSGGEGKGGSDGGGSHRKEGEEAD
On to B1, for which the MFI in experiment [1] was determined as 0; in experiment [2], 0; in experiment [3] it was 1; in experiment [4], 0; in experiment [5] it was 0; in experiment [6], 0.5.
